Results published in US20220125837A1, “METHODS FOR CONTROLLED ELIMINATION OF THERAPEUTIC CELLS” (Bellicum Pharmaceuticals, Inc., priority 2014, published 2022).
Entries after “also recorded” stand apart in the source; their conditions may differ. Where a SMILES comes first, the peptide text is derived from it. The star is where a group is joined. Cbz = O=C(OCc1ccccc1)*; CH2F = FC*

B1: T317A: chimeric modified Caspase-9 polypeptide (protein)
chain: VDGFGDVGALESLRGNADLAYILSMEPCGHCLIINNVNFCRESGLRTRTGSNIDCEKLRRRFSSLHFMVEVKGDLTAKKMVLALLELARQDHGALDCCVVVILSHGCQASHLQFPGAVYGTDGCPVSVEKIVNIFNGTSCPSLGGKPKLFFIQACGGEQKDHGFEVASTSPEDESPGSNPEPDAAPFQEGLRTFDQLDAISSLPTPSDIFVSYSTFPGFVSWRDPKSGSWYVETLDDIFEQWAHSEDLQSLLLRVANAVSVKGIYKQMPGCFNFLRKKLFFKTSASRA
B2: S196A: chimeric modified Caspase-9 polypeptide (protein)
chain: VDGFGDVGALESLRGNADLAYILSMEPCGHCLIINNVNFCRESGLRTRTGSNIDCEKLRRRFSALHFMVEVKGDLTAKKMVLALLELARQDHGALDCCVVVILSHGCQASHLQFPGAVYGTDGCPVSVEKIVNIFNGTSCPSLGGKPKLFFIQACGGEQKDHGFEVASTSPEDESPGSNPEPDATPFQEGLRTFDQLDAISSLPTPSDIFVSYSTFPGFVSWRDPKSGSWYVETLDDIFEQWAHSEDLQSLLLRVANAVSVKGIYKQMPGCFNFLRKKLFFKTSASRA
B3: D330V: chimeric modified Caspase-9 polypeptide (protein)
chain: VDGFGDVGALESLRGNADLAYILSMEPCGHCLIINNVNFCRESGLRTRTGSNIDCEKLRRRFSSLHFMVEVKGDLTAKKMVLALLELARQDHGALDCCVVVILSHGCQASHLQFPGAVYGTDGCPVSVEKIVNIFNGTSCPSLGGKPKLFFIQACGGEQKDHGFEVASTSPEDESPGSNPEPDATPFQEGLRTFDQLVAISSLPTPSDIFVSYSTFPGFVSWRDPKSGSWYVETLDDIFEQWAHSEDLQSLLLRVANAVSVKGIYKQMPGCFNFLRKKLFFKTSASRA
B4: S144A: chimeric modified Caspase-9 polypeptide (protein)
chain: VDGFGDVGALEALRGNADLAYILSMEPCGHCLIINNVNFCRESGLRTRTGSNIDCEKLRRRFSSLHFMVEVKGDLTAKKMVLALLELARQDHGALDCCVVVILSHGCQASHLQFPGAVYGTDGCPVSVEKIVNIFNGTSCPSLGGKPKLFFIQACGGEQKDHGFEVASTSPEDESPGSNPEPDATPFQEGLRTFDQLDAISSLPTPSDIFVSYSTFPGFVSWRDPKSGSWYVETLDDIFEQWAHSEDLQSLLLRVANAVSVKGIYKQMPGCFNFLRKKLFFKTSASRA
B5: S183A: chimeric modified Caspase-9 polypeptide (protein)
chain: VDGFGDVGALESLRGNADLAYILSMEPCGHCLIINNVNFCRESGLRTRTGANIDCEKLRRRFSSLHFMVEVKGDLTAKKMVLALLELARQDHGALDCCVVVILSHGCQASHLQFPGAVYGTDGCPVSVEKIVNIFNGTSCPSLGGKPKLFFIQACGGEQKDHGFEVASTSPEDESPGSNPEPDATPFQEGLRTFDQLDAISSLPTPSDIFVSYSTFPGFVSWRDPKSGSWYVETLDDIFEQWAHSEDLQSLLLRVANAVSVKGIYKQMPGCFNFLRKKLFFKTSASRA
B6: S144D: chimeric modified Caspase-9 polypeptide (protein)
chain: VDGFGDVGALEDLRGNADLAYILSMEPCGHCLIINNVNFCRESGLRTRTGSNIDCEKLRRRFSSLHFMVEVKGDLTAKKMVLALLELARQDHGALDCCVVVILSHGCQASHLQFPGAVYGTDGCPVSVEKIVNIFNGTSCPSLGGKPKLFFIQACGGEQKDHGFEVASTSPEDESPGSNPEPDATPFQEGLRTFDQLDAISSLPTPSDIFVSYSTFPGFVSWRDPKSGSWYVETLDDIFEQWAHSEDLQSLLLRVANAVSVKGIYKQMPGCFNFLRKKLFFKTSASRA
B7: D330N: chimeric modified Caspase-9 polypeptide (protein)
chain: VDGFGDVGALESLRGNADLAYILSMEPCGHCLIINNVNFCRESGLRTRTGSNIDCEKLRRRFSSLHFMVEVKGDLTAKKMVLALLELARQDHGALDCCVVVILSHGCQASHLQFPGAVYGTDGCPVSVEKIVNIFNGTSCPSLGGKPKLFFIQACGGEQKDHGFEVASTSPEDESPGSNPEPDATPFQEGLRTFDQLNAISSLPTPSDIFVSYSTFPGFVSWRDPKSGSWYVETLDDIFEQWAHSEDLQSLLLRVANAVSVKGIYKQMPGCFNFLRKKLFFKTSASRA
B8: S196D: chimeric modified Caspase-9 polypeptide (protein)
chain: VDGFGDVGALESLRGNADLAYILSMEPCGHCLIINNVNFCRESGLRTRTGSNIDCEKLRRRFSDLHFMVEVKGDLTAKKMVLALLELARQDHGALDCCVVVILSHGCQASHLQFPGAVYGTDGCPVSVEKIVNIFNGTSCPSLGGKPKLFFIQACGGEQKDHGFEVASTSPEDESPGSNPEPDATPFQEGLRTFDQLDAISSLPTPSDIFVSYSTFPGFVSWRDPKSGSWYVETLDDIFEQWAHSEDLQSLLLRVANAVSVKGIYKQMPGCFNFLRKKLFFKTSASRA
B9: D330S: chimeric modified Caspase-9 polypeptide (protein)
chain: VDGFGDVGALESLRGNADLAYILSMEPCGHCLIINNVNFCRESGLRTRTGSNIDCEKLRRRFSSLHFMVEVKGDLTAKKMVLALLELARQDHGALDCCVVVILSHGCQASHLQFPGAVYGTDGCPVSVEKIVNIFNGTSCPSLGGKPKLFFIQACGGEQKDHGFEVASTSPEDESPGSNPEPDATPFQEGLRTFDQLSAISSLPTPSDIFVSYSTFPGFVSWRDPKSGSWYVETLDDIFEQWAHSEDLQSLLLRVANAVSVKGIYKQMPGCFNFLRKKLFFKTSASRA
B10: D330G: chimeric modified Caspase-9 polypeptide (protein)
chain: VDGFGDVGALESLRGNADLAYILSMEPCGHCLIINNVNFCRESGLRTRTGSNIDCEKLRRRFSSLHFMVEVKGDLTAKKMVLALLELARQDHGALDCCVVVILSHGCQASHLQFPGAVYGTDGCPVSVEKIVNIFNGTSCPSLGGKPKLFFIQACGGEQKDHGFEVASTSPEDESPGSNPEPDATPFQEGLRTFDQLGAISSLPTPSDIFVSYSTFPGFVSWRDPKSGSWYVETLDDIFEQWAHSEDLQSLLLRVANAVSVKGIYKQMPGCFNFLRKKLFFKTSASRA
B11: A316G: chimeric modified Caspase-9 polypeptide (protein)
chain: VDGFGDVGALESLRGNADLAYILSMEPCGHCLIINNVNFCRESGLRTRTGSNIDCEKLRRRFSSLHFMVEVKGDLTAKKMVLALLELARQDHGALDCCVVVILSHGCQASHLQFPGAVYGTDGCPVSVEKIVNIFNGTSCPSLGGKPKLFFIQACGGEQKDHGFEVASTSPEDESPGSNPEPDGTPFQEGLRTFDQLDAISSLPTPSDIFVSYSTFPGFVSWRDPKSGSWYVETLDDIFEQWAHSEDLQSLLLRVANAVSVKGIYKQMPGCFNFLRKKLFFKTSASRA
B12: F319A: chimeric modified Caspase-9 polypeptide (protein, UniProt P55211 1-416, looked up, variant F319A)
chain: MDEADRRLLRRCRLRLVEELQVDQLWDALLSRELFRPHMIEDIQRAGSGSRRDQARQLIIDLETRGSQALPLFISCLEDTGQDMLASFLRTNRQAAKLSKPTLENLTPVVLRPEIRKPEVLRPETPRPVDIGSGGFGDVGALESLRGNADLAYILSMEPCGHCLIINNVNFCRESGLRTRTGSNIDCEKLRRRFSSLHFMVEVKGDLTAKKMVLALLELAQQDHGALDCCVVVILSHGCQASHLQFPGAVYGTDGCPVSVEKIVNIFNGTSCPSLGGKPKLFFIQACGGEQKDHGFEVASTSPEDESPGSNPEPDATPAQEGLRTFDQLDAISSLPTPSDIFVSYSTFPGFVSWRDPKSGSWYVETLDDIFEQWAHSEDLQSLLLRVANAVSVKGIYKQMPGCFNFLRKKLFFKTS
modifications: fused to FKBP12 F36V dimerization domain
notes: chimeric modified Caspase-9 polypeptide
B13: F319W: chimeric modified Caspase-9 polypeptide (protein, UniProt P55211 1-416, looked up, variant F319W)
chain: MDEADRRLLRRCRLRLVEELQVDQLWDALLSRELFRPHMIEDIQRAGSGSRRDQARQLIIDLETRGSQALPLFISCLEDTGQDMLASFLRTNRQAAKLSKPTLENLTPVVLRPEIRKPEVLRPETPRPVDIGSGGFGDVGALESLRGNADLAYILSMEPCGHCLIINNVNFCRESGLRTRTGSNIDCEKLRRRFSSLHFMVEVKGDLTAKKMVLALLELAQQDHGALDCCVVVILSHGCQASHLQFPGAVYGTDGCPVSVEKIVNIFNGTSCPSLGGKPKLFFIQACGGEQKDHGFEVASTSPEDESPGSNPEPDATPWQEGLRTFDQLDAISSLPTPSDIFVSYSTFPGFVSWRDPKSGSWYVETLDDIFEQWAHSEDLQSLLLRVANAVSVKGIYKQMPGCFNFLRKKLFFKTS
modifications: fused to FKBP12 F36V dimerization domain
notes: as for B12

The molecules below were run on HEK293T/16 cells (assay: Secreted alkaline phosphatase (SEAP) surrogate killing assay of iCasp9 mutants). Conditions: SEAP assay without AP1903; relative to wild type Caspase-9.
Format: cell-based, human
Method: Early passage HEK293T/16 cells (ATCC, Manassas, Va.) were maintained in IMDM, GlutaMAX™ (Life Technologies, Carlsbad, Calif.) supplemented with 10% FBS, 100 U/mL penicillin, and 100 U/mL streptomycin until transfection in a humidified, 37° C., 5% CO2/95% air atmosphere. Cells in logarithmic-phase growth were transiently transfected with 800 ng to 2 μg of expression plasmid encoding iCasp9 mutants and 500 ng of an expression plasmid encoding SRα promoter driven SEAP per million cells in 15-mL conical tubes. […] GeneJammer® Transfection Reagent at a ratio of 3 μl per ug of plasmid DNA was used to transiently transfect HEK293T/16 cells in the absence of antibiotics. 100 μl or 2 mL of the transfection mixture was added to each well in 96-well or 6-well plate, respectively.
Briefly, after 65° C. heat denaturation for 45 minutes to reduce background caused by endogenous (and serum-derived) alkaline phosphatases that are sensitive to heat, 5 μl of supernatants was added to 95 μl of PBS and added to 100 μl of substrate buffer, containing 1 μl of 100 mM 4-methylumbelliferyl phosphate (4-MUP; Sigma, St. Louis, Mo.) re-suspended in 2 M diethanolamine. Hydrolysis of 4-MUP by SEAP produces a fluorescent substrate with excitation/emission (355/460 nm), which can be easily measured. […] 1000-ul of the mixture was seeded onto each well of a 96-well plate. […] For the assay, 4-methylumbelliferyl phosphate substrate was hydrolyzed by SEAP to 4-methylumbelliferon, a metabolite that can be excited with 364 nm and detected with an emission filter of 448 nm. Since SEAP is used as a marker for cell viability, reduced SEAP reading corresponds with increased iCaspase-9 activities.

Molecule	basal activity, in words
B1	lower basal activity; also recorded: reduce basal activity
B2	lower basal activity
B3	less basal activity than wild type Caspase-9
B4	lower basal activity
B5	lower basal activity
B6	lower basal activity
B7	less basal activity than wild type Caspase-9
B8	lower basal activity
B9	less basal activity than wild type Caspase-9
B10	less basal activity than wild type Caspase-9
B11	lower basal activity
B12	no effect
B13	lower basal activity

These molecules were tested on F-Casp9M.I.GFPhigh-transduced T cells (assay: Annexin V/7-AAD staining of iCasp9M GFPhigh T cells after CID). Conditions: 100 μM for 1 hour prior to adding CID.
Format: cell-based, human
Method: CID (AP20187; ARIAD Pharmaceuticals) at indicated concentrations was added to transfected 293T cells or transduced CTLs. Adherent and nonadherent cells were harvested and washed with annexin binding buffer (BD Pharmingen, San Jose, Calif.). Cells were stained with annexin-V and 7-amino-actinomycin D (7-AAD) for 15 minutes according to the manufacturer's instructions (BD Pharmingen). Within 1 hour after staining, cells were analyzed by flow cytometry using CellQuest software (Becton Dickinson).
A representative example of 3 separate experiments is shown.
For clinical applications therefore, versions of the expression constructs with selectable markers that allow selection for high copy number, high levels of expression, or both high copy number and high levels of expression may be desirable. […] The dose response remained unchanged for at least 4 weeks after transduction.

Molecule	effect on CID-induced apoptosis
COC(=O)C[C@H](NC(=O)[C@H](C)NC(=O)[C@@H](NC(=O)OCc1ccccc1)C(C)C)C(=O)CF [zVAD-fmk] (Cbz-Val-Ala-Asp(OMe)-CH2F)	inhibited
